Laboratory results from IntAct's records for PubMed 16099979.

B1: Protein FD (Arabidopsis thaliana (Mouse-ear cress)), Q84JK2 (parent)
chain: MLSSAKHQRNHRLSATNKNQTLTKVSSISSSSPSSSSSSSSTSSSSPLPSQDSQAQKRSLVTMEEVWNDINLASIHHLNRHSPHPQHNHEPRFRGQNHHNQNPNSIFQDFLKGSLNQEPAPTSQTTGSAPNGDSTTVTVLYSSPFPPPATVLSLNSGAGFEFLDNQDPLVTSNSNLHTHHHLSNAHAFNTSFEALVPSSSFGKKRGQDSNEGSGNRRHKRMIKNRESAARSRARKQAYTNELELEVAHLQAENARLKRQQDQLKMAAAIQQPKKNTLQRSSTAPF

Variants of: B1
Details: with ft_arath FT

Variant	effect of a mutation on the interaction
MLSSAKHQRNHRLSATNKNQTLTKVSSISSSSPSSSSSSSSTSSSSPLPSQDSQAQKRSLVTMEEVWNDINLASIHHLNRHSPHPQHNHEPRFRGQNHHNQNPNSIFQDFLKGSLNQEPAPTSQTTGSAPNGDSTTVTVLYSSPFPPPATVLSLNSGAGFEFLDNQDPLVTSNSNLHTHHHLSNAHAFNTSFEALVPSSSFGKKRGQDSNEGSGNRRHKRMIKNRESAARSRARKQAYTNELELEVAHLQAENARLKRQQDQLKMAAAIQQPKKNTLQRSSAAPF [T282A]	decreasing interaction
MLSSAKHQRNHRLSATNKNQTLTKVSSISSSSPSSSSSSSSTSSSSPLPSQDSQAQKRSLVTMEEVWNDINLASIHHLNRHSPHPQHNHEPRFRGQNHHNQNPNSIFQDFLKGSLNQEPAPTSQTTGSAPNGDSTTVTVLYSSPFPPPATVLSLNSGAGFEFLDNQDPLVTSNSNLHTHHHLSNAHAFNTSFEALVPSSSFGKKRGQDSNEGSGNRRHKRMIKNRESAARSRARKQAYTNELELEVAHLQAENARLKRQQDQLKMAAAIQQPKKNTLQRSSSAPF [T282S]	decreasing interaction
